{"source": "patent US20110269817", "target": "BMAL1 acetylated at Lys537 (ectopically expressed together with CLOCK), Q9WTL8", "sequence (Q9WTL8 other isoform, or with tags, fused parts or gaps)": "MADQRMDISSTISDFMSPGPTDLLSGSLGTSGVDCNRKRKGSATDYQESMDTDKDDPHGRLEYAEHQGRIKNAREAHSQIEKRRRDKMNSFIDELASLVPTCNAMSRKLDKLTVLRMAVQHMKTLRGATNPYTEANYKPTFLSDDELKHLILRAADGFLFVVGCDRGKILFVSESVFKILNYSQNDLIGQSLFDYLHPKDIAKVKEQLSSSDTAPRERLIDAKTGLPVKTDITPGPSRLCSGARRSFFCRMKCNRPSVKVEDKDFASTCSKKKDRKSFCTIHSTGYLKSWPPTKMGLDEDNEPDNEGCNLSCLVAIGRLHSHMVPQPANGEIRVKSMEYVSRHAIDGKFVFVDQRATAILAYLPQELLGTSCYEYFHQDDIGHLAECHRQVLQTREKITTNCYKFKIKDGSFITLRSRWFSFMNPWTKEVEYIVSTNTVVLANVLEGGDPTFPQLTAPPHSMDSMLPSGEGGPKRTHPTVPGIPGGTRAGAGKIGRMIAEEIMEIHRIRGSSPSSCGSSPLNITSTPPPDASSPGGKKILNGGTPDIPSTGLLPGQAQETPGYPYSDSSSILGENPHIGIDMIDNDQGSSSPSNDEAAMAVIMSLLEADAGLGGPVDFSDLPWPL", "data": [{"protein": "Recombinant SIRT1 of the SIRT1 Fluorimetric Activity Assay/Drug Discovery Kit (AK-555; BIOMOL International) (protein) MADEAALALQPGGSPSAAGADREAASSPAGEPLRKRPRRDGPGLERSPGEPGGAAPEREVPAAARGCPGAAAAALWREAEAEAAAAGGEQEAQATAAAGEGDNGPGLQGPSREPPLADNLYDEDDDDEGEEEEEAAAAAIGYRDNLLFGDEIITNGFHSCESDEEDRASHASSSDWTPRPRIGPYTFVQQHLMIGTDPRTILKDLLPETIPPPELDDMTLWQIVINILSEPPKRKKRKDINTIEDAVKLLQECKKIIVLTGAGVSVSCGIPDFRSRDGIYARLAVDFPDLPDPQAMFDIEYFRKDPRPFFKFAKEIYPGQFQPSLCHKFIALSDKEGKLLRNYTQNIDTLEQVAGIQRIIQCHGSFATASCLICKYKVDCEAVRGDIFNQVVPRCPRCPADEPLAIMKPEIVFFGENLPEQFHRAMKYDKDEVDLLIVIGSSLKVRPVALIPSSIPHEVPQILINREPLPHLHFDVELLGDCDVIINELCHRLGGEYAKLCCNPVKLSEITEKPPRTQKELAYLSELPPTPLHVSEDSSSPERTSPPDSSVIVTLLDQAAKSNDDLDVSESKGCMEEKPQEVQTSRNVESIAEQMENPDLKNVGSSTGEKNERTSVAGTVRKCWPNRVAKEQISRRLDGNQYLFLPPNRYIFHGAEVYSDSEDDVLSSSSCGSNSDSGTCQSPSLEEPMEDESEIEEFYNGLEDEPDVPERAGGAGFGTDGDDQEAINEAISVKQEVTDMNYPSNKS", "values": [{"measurement": "in vitro deacetylation assay (immunoprecipitated Ac-BMAL1 with recombinant SIRT1, 5 mM NAD+ or 10 mM NAM, 90 min at 37 C; Western with Ac-BMAL1 antibody)", "value": "SIRT1 readily deacetylates BMAL1 in an in vitro deacetylation assay"}]}]}
